{"source": "patent US20080138790A1", "about": "(priority 2004, published 2008)", "key": {"[1]": {"tested_on": "rat", "conditions": "cited from earlier work"}, "[2]": {"conditions": "in vivo; cited from earlier work"}, "[3]": {"experiment": "Percentage Met-Hb over time of stroma free hemoglobin with/without solvent-detergent", "assay_type": "physicochemical", "protocol": "(§1) The solvent-detergent treatment was performed at a concentration of 1% Tween 80 […] and 0.3% Tri-N-Butyl Phosphate […]. […] All testing was performed at neutral pH in phosphate buffered saline.\n(§2) After treatment, the mixture was centrifuged at 8,000 rpm (4,600 g) for 6 minutes at room temperature."}, "[4]": {"experiment": "Total Hb over time of stroma free hemoglobin with/without solvent-detergent", "assay_type": "physicochemical", "protocol": "as §1, §2"}}, "note": "Like-named read-outs stand apart in the source and are kept apart here.", "data": [{"compound": "CC(C)O", "note": "[2-Propanol]", "values": [{"measurement": "LD50 (oral-rat)", "setting": "[1]; in vivo, po", "value": 5000, "unit": "mg/kg"}]}, {"compound": "CCCO", "note": "[1-Propanol]", "values": [{"measurement": "LD50 (oral-rat)", "setting": "[1]; in vivo, po", "value": 1900, "unit": "mg/kg"}]}, {"compound": "CC#N", "note": "[Acetonitrile]", "values": [{"measurement": "LD50 (oral-rat)", "setting": "[1]; oral", "value": 3800, "unit": "mg/kg"}]}, {"compound": "conjugate of hemoglobin (with a molecular weight of 64,000) and dextran (having a molecular weight of 20,000): hemoglobin conjugated to dextran of molecular weight 20,000, reported by Blumenstein et al.", "values": [{"measurement": "clearance from the circulation and through the kidneys", "setting": "[2]", "value": "cleared slowly from the circulation and negligibly through the kidneys"}]}, {"compound": "SFH: stroma free hemoglobin prepared as in Example 1, 8.6-9.0 g % in PBS", "values": [{"measurement": "Percentage Met-Hb", "setting": "[3]; 2-6° C., 0 hrs", "value": 2.15, "unit": "%"}, {"measurement": "Percentage Met-Hb", "setting": "[3]; 2-6° C., 1 hrs", "value": 2.2, "unit": "%"}, {"measurement": "Percentage Met-Hb", "setting": "[3]; 2-6° C., 2 hrs", "value": 2.25, "unit": "%"}, {"measurement": "Percentage Met-Hb", "setting": "[3]; 2-6° C., 3 hrs", "value": 2.15, "unit": "%"}, {"measurement": "Percentage Met-Hb", "setting": "[3]; 2-6° C., 4 hrs", "value": 2.1, "unit": "%"}, {"measurement": "Percentage Met-Hb", "setting": "[3]; 2-6° C., 5 hrs", "value": 2.25, "unit": "%"}, {"measurement": "Percentage Met-Hb", "setting": "[3]; 21-23° C., 0 hrs", "value": 2.2, "unit": "%"}, {"measurement": "Percentage Met-Hb", "setting": "[3]; 21-23° C., 1 hrs", "value": 2.4, "unit": "%"}, {"measurement": "Percentage Met-Hb", "setting": "[3]; 21-23° C., 2 hrs", "value": 2.45, "unit": "%"}, {"measurement": "Percentage Met-Hb", "setting": "[3]; 21-23° C., 3 hrs", "value": 2.45, "unit": "%"}, {"measurement": "Percentage Met-Hb", "setting": "[3]; 21-23° C., 4 hrs", "value": 2.6, "unit": "%"}, {"measurement": "Percentage Met-Hb", "setting": "[3]; 21-23° C., 5 hrs", "value": 2.8, "unit": "%"}, {"measurement": "Total Hb", "setting": "[4]; 2-6° C., 0 hrs", "value": 8.6, "unit": "g %"}, {"measurement": "Total Hb", "setting": "[4]; 2-6° C., 1 hrs", "value": 8.5, "unit": "g %"}, {"measurement": "Total Hb", "setting": "[4]; 2-6° C., 2 hrs", "value": 8.55, "unit": "g %"}, {"measurement": "Total Hb", "setting": "[4]; 2-6° C., 3 hrs", "value": 8.65, "unit": "g %"}, {"measurement": "Total Hb", "setting": "[4]; 2-6° C., 4 hrs", "value": 8.65, "unit": "g %"}, {"measurement": "Total Hb", "setting": "[4]; 2-6° C., 5 hrs", "value": 8.55, "unit": "g %"}, {"measurement": "Total Hb", "setting": "[4]; 21-23° C., 0 hrs", "value": 8.5, "unit": "g %"}, {"measurement": "Total Hb", "setting": "[4]; 21-23° C., 1 hrs", "value": 8.55, "unit": "g %"}, {"measurement": "Total Hb", "setting": "[4]; 21-23° C., 2 hrs", "value": 8.55, "unit": "g %"}, {"measurement": "Total Hb", "setting": "[4]; 21-23° C., 3 hrs", "value": 8.65, "unit": "g %"}, {"measurement": "Total Hb", "setting": "[4]; 21-23° C., 4 hrs", "value": 8.6, "unit": "g %"}, {"measurement": "Total Hb", "setting": "[4]; 21-23° C., 5 hrs", "value": 8.55, "unit": "g %"}]}, {"compound": "COCCOC", "note": "[Dimethoxy- ethane (glyme), Dimethoxy- ethane]", "values": [{"measurement": "LD50 (oral-rat)", "setting": "[1]; oral", "value": 10000, "unit": "mg/kg"}]}, {"compound": "CO", "note": "[Methanol]", "values": [{"measurement": "LD50 (oral-rat)", "setting": "[1]; oral", "value": 5600, "unit": "mg/kg"}]}, {"compound": "CCOC(C)=O", "note": "[Ethyl acetate]", "values": [{"measurement": "LD50 (oral-rat)", "setting": "[1]; in vivo, po", "value": 11000, "unit": "mg/kg"}]}, {"compound": "CCC(C)=O", "note": "[2-Butanone]", "values": [{"measurement": "LD50 (oral-rat)", "setting": "[1]; oral", "value": 2700, "unit": "mg/kg"}]}]}
